In this experiment the target is T1, wild-type (polymerization-competent) yeast αβ-tubulin, P09733;P02557.
T1 chain 1: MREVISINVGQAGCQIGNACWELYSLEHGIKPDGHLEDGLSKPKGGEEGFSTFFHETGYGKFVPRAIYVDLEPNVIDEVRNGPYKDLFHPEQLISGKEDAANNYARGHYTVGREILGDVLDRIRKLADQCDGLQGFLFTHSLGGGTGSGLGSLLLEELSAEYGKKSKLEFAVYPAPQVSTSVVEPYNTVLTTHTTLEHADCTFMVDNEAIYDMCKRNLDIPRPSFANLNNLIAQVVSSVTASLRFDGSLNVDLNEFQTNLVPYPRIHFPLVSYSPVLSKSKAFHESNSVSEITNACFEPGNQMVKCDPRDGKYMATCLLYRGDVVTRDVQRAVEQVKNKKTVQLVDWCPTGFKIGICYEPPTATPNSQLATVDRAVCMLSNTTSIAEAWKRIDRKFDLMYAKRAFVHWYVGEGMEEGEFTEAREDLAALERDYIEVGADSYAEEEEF
T1 chain 2: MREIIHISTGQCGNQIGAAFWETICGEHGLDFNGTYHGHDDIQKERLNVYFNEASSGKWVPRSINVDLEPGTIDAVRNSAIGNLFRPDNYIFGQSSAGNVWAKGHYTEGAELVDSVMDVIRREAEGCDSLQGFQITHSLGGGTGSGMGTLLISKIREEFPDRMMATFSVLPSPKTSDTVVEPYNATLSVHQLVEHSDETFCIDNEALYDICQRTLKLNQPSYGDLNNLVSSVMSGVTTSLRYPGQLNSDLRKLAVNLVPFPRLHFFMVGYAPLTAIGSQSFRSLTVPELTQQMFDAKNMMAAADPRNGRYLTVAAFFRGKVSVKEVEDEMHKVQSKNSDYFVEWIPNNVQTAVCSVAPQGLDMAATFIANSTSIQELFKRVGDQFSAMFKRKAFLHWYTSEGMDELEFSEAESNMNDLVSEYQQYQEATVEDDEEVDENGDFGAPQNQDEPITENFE
As to the kind of experiment: sedimentation velocity AUC. The settings on record: chain shown with the change; [TOG1-TOG2] = 1.7 µM; [αβ] = 0.35 µM.

One molecule from paper PMC4145800 can be followed below.

B1: TOG1-TOG2(1-560) of Stu2p, P46675 W341A (protein)
chain: MSGEEEVDYTTLPLEERLTYKLWKARLEAYKELNQLFRNSVGDISRDDNIQIYWRDPTLFAQYITDSNVVAQEQAIVALNSLIDAFASSSLKNAHNITLISTWTPLLVEKGLTSSRATTKTQSMSCILSLCGLDTSITQSVELVIPFFEKKLPKLIAAAANCVYELMAAFGLTNVNVQTFLPELLKHVPQLAGHGDRNVRSQTMNLIVEIYKVTGNNSDLLEEILFKKLKPIQVKDLHKLFAKVGDEPSSSKMLFEWEKRELEKKRSQEEEARKRKSILSNDEGEYQIDKDGDTLMGMETDMPPSKQQSGVQIDTFSMLPEETILDKLPKDFQERITSSKAKDRVEALEEFWDSVLSQTKKLKSTSQNYSNLLGIYGHIIQKDANIQAVALAAQSVELICDKLKTPGFSKDYVSLVFTPLLDRTKEKKPSVIEAIRKALLTICKYYDPLASSGRNEDMLKDILEHMKHKTPQIRMECTQLFNASMKEEKDGYSTLQRYLKDEVVPIVIQIVNDTQPAIRTIGFESFAILIKIFGMNTFVKTLEHLDNLKRKKIEETVKTL
In the case of B1, the other: sedimentation coefficient of the TOG1-TOG2:αβ-tubulin complex (s20,w) was 7.1 S.
